{
  "source": "paper PMC9096947",
  "tested_on": "CodY (Streptococcus agalactiae (Group B Streptococcus) BM110)",
  "assay": "EMSA",
  "conditions": "EMSA as in Barbieri et al. 2015 (buffer, salt, pH, temperature not given); 50 nM FAM probe; 5% non-denaturing Tris-glycine polyacrylamide gel; 10 mM each ILV …",
  "note": "Values joined by “and” are separate entries in the source; they are usually repeats but may differ in a detail not shown here. Equal values may be shown once.",
  "data": [
    {"substance": "livKp220 (livK regulatory region, WT)", "values": [
      {"measurement": "Kd", "value": "50 nM and 150 nM"}
    ]}
  ]
}
